From US20140363495A1 (US Dept. of Health and Human Services, published 2014)

B1: VNTR-4 (peptide)
peptide: APDTRPAPG
notes: Synthetic 9-mer; also called pVNTR4; VNTR-4 (native)
B2: VNTR-2 (peptide)
peptide: STAPPAHGV
notes: Synthetic 9-mer; also called pVNTR2; VNTR-2 (native)
B3: VNTR-5 (agonist) (peptide)
peptide: YLDTRPAPV
notes: Synthetic analog with substitutions at positions 1, 2 and 9; also called pVNTR5; pVNTR-5
B4: P1172 (peptide)
peptide: ALAIVYLIAL
notes: Synthetic 10-mer, purity >90%; also called Native 432

target: T1, HLA-A2 molecules on T2A2 cells (human); test: flow cytometry, upregulation of HLA-A2 on T2A2 cells, peptide 25 µg/mL
T1 construct: whole, on cells; also called class I molecules
Procedure: *Peptides were used at a concentration of 25 μg/mL. ^{#}Results expressed as mean fluorescence intensity (MFI).

Row | Binder | T2A2 Binding (MFI)
1 | YLAPPAHGV (also called pVNTR3; pVNTR-3) [VNTR-3 (agonist)] | 486 MFI
2 | B1 | 210 MFI
3 | STAPPAHNV (Synthetic 9-mer; also called pVNTR1) [VNTR-1] | 169 MFI
4 | B2 | 166 MFI
5 | B3 | 647 MFI

target: T1, HLA-A2 molecules on T2A2 cells; test: flow cytometry, upregulation of HLA-A2 on T2A2 cells, peptide 12.5 µg/mL
Procedure: *Peptides were used at a concentration of 12.5 μg/mL. ^{#}Results expressed as mean fluorescence intensity (MFI). NGEP (P703) peptide is an HLA-A2-binding peptide. CAP-7 peptide is an HLA-A3-binding CEA peptide

Row | Binder | T2 Binding (MFI)
6 | YLIALAVCQC (Synthetic 10-mer) [P1177] | 211 MFI
7 | YLIALAVCQV [P1177(10V)] | 299 MFI
8 | B4 | 249 MFI
9 | YLAIVYLIAL [P1172(1Y)] | 245 MFI
10 | SLSYTNPAV (Synthetic 9-mer) [P1240] | 326 MFI
11 | YLSYTNPAV [P1240(1Y)] | 342 MFI
